Measured values taken from patent publication US20240158515A1 (Regeneron, published 2024).

Experiments:
[1] = biological target: T1, human FGFR3b expressed with a C-terminal murine Fc tag (hFGFR3b.mFc) (human); assay: SPR Biacore, mAb captured on anti-hFc, 25C
T1 construct: called dimeric; also called REGN3153; dimeric human FGFR3b
T1 chain: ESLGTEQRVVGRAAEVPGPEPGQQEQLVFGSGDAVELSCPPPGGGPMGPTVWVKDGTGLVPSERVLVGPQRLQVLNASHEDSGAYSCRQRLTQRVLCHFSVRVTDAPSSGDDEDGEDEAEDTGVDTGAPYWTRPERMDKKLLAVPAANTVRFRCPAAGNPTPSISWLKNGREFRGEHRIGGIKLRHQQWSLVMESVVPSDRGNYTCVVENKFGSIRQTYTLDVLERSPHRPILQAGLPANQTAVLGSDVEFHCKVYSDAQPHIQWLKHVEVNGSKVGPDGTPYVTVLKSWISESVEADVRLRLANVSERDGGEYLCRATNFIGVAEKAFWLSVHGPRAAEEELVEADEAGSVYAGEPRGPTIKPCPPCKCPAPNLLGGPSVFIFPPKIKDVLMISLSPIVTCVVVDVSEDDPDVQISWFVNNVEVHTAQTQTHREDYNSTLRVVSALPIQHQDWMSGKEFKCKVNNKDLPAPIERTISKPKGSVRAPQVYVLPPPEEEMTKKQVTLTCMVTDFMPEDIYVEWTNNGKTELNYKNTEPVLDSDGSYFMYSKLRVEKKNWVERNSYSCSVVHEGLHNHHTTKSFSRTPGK
Protocol: (§1) The CM5 Biacore sensor surface was derivatized by amine coupling with a monoclonal mouse anti-human Fc monoclonal antibody (REGN2567). […] Antibody-reagent association was monitored for 5 minutes while dissociation in HBS-EP running buffer was monitored for 10 minutes. At the end of each cycle, the anti-FGFR3 antibody capture surface was regenerated using a 10 sec injection of 20 mM phosphoric acid. All binding kinetics experiments were performed at 25° C.
(§2) The specific SPR-Biacore sensorgrams were obtained by a double referencing procedure. The double referencing was performed by first subtracting the signal of each injection over a reference surface (anti-hFc) from the signal over the experimental surface (anti-hFc-captured anti-FGFR3 antibodies) thereby removing contributions from refractive index changes. In addition, running buffer injections were performed to allow subtraction of the signal changes resulting from the dissociation of captured antibodies from the coupled anti-hFc surface. Kinetic association (kₐ) and dissociation (kd) rate constants were determined by fitting the real-time sensorgrams to a 1:1 binding model using Scrubber v2.0c curve fitting software.

[2] = biological target: T2, human FGFR3b expressed with a C-terminal myc-myc-hexahistidine tag (hFGFR3b.mmH) (human); assay: SPR Biacore, mAb captured on anti-hFc, 25C
T2 construct: also called REGN3152; monomeric human FGFR3b
T2 chain: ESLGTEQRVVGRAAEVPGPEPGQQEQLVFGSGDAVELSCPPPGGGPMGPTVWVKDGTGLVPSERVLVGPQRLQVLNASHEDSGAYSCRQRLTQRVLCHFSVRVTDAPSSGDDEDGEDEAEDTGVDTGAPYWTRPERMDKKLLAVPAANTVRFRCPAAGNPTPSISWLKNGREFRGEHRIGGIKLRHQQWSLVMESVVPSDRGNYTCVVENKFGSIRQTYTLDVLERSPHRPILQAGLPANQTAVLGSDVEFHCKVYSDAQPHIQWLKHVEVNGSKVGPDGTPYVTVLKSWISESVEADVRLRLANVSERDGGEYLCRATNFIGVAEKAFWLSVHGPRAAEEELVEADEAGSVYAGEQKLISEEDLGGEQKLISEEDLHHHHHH
Protocol: as §1, §2

[3] = biological target: T3, human FGFR3c expressed with a C-terminal myc-myc-hexahistidine tag (hFGFR3c.mmH) (human, UniProt P22607 23-375); assay: SPR Biacore, mAb captured on anti-hFc, 25C
T3 construct: also called REGN3155; monomeric human FGFR3c
Protocol: as §1, §2

[4] = biological target: T4, murine FGFR3b expressed with a C-terminal myc-myc-hexahistidine tag (mFGFR3b.mmH) (murine); assay: SPR Biacore, mAb captured on anti-hFc, 25C
T4 construct: also called REGN3215; monomeric murine FGFR3b
T4 chain: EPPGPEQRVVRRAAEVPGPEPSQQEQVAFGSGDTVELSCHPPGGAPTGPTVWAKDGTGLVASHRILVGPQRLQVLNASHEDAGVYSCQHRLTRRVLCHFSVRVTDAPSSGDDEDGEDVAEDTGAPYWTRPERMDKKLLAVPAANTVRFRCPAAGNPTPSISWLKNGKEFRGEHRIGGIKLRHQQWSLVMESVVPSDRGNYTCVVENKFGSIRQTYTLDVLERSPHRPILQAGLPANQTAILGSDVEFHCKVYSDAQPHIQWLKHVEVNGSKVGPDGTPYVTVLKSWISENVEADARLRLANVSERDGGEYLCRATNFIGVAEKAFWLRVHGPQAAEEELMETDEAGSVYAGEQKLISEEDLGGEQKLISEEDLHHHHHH
Protocol: as §1, §2

[5] = biological target: T5, cynomolgus FGFR3b expressed with a C-terminal myc-myc-hexahistidine tag (mfFGFR3b.mmH) (cynomolgus); assay: SPR Biacore, mAb captured on anti-hFc, 25C
T5 construct: also called REGN3521; mf FGFR3b ecto (R357G)(E23-G377;R357G).mmH
T5 chain: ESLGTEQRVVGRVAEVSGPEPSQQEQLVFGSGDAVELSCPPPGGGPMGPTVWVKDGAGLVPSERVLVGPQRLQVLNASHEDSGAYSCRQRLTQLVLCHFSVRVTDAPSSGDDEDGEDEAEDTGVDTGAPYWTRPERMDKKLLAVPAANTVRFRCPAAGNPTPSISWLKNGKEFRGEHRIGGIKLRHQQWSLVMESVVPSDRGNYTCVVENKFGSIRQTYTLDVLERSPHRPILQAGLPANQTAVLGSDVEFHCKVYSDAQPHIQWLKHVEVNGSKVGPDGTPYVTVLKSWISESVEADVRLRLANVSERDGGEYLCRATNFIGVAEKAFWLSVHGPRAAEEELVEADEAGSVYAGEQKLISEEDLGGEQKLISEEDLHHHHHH
Protocol: as §1, §2

[6] = biological target: T4, murine FGFR3b expressed with a …; assay: SPR Biacore, mAb captured on anti-hFc, 25C; row marked NB
Protocol: as §1, §2

[7] = biological target: T1, human FGFR3b expressed with a …; assay: competition ELISA: 4 nM hFGFR3b-mFc binding to plate-coated hFGF acidic
Protocol: The fixed concentration of hFGFR3b or hFGFR3c proteins was selected to be near the concentration that generated 50% of the maximal binding (EC₅₀ value) to plate-adhered hFGF acidic or hFGF basic protein. […] The plates were then developed using TMB substrate solution (BD Biosciences) according to the manufacturer's recommended procedure and absorbance at 450 nm was measured on a Victor X5 plate reader.
Binding data were analyzed using a sigmoidal (four-parameter logistic) dose-response model using GraphPad Prism software. […] Percent blocking of FGFR3 antibody at a given concentration was calculated based on the formula shown below.
The ability of anti-FGFR3 antibodies to block human FGFR3b binding to hFGF acidic protein or hFGFR3c binding to hFGF acidic or hFGF basic proteins was evaluated using a sandwich ELISA-based blocking assay.

[8] = biological target: T3, human FGFR3c expressed with a …; assay: SPR Biacore, mAb captured on anti-hFc, 25C; row marked NB
Protocol: as §1, §2

[9] = biological target: full length human FGFR3b on BaF3 cells (BAF3/FGFR3b, ACL11991) (human, UniProt P22607 23-808); assay: cell-based or functional assay
[10] = biological target: full length human FGFR3b S249C on BaF3 cells (BAF3/FGFR3b_S249C, ACL11986) (human, UniProt P22607 23-808); assay: cell-based or functional assay

Binder	30 nM hFGFR3b.mFc Bind (RU) [1] [RU]	Kd [1] [nM]	koff [1] [s⁻¹]	kon [1] [M⁻¹ s⁻¹]	t½ [1] [min]	90 nM hFGFR3b.mmH Bind (RU) [2] [RU]	Kd [2] [nM]	koff [2] [s⁻¹]	kon [2] [M⁻¹ s⁻¹]	t½ [2] [min]	90 nM hFGFR3c.mmH Bind (RU) [3] [RU]	Kd [3] [nM]	koff [3] [s⁻¹]	kon [3] [M⁻¹ s⁻¹]	t½ [3] [min]	90 nM mfFGFR3b.mmH Bind (RU) [5] [RU]	Kd [5] [nM]	koff [5] [s⁻¹]	kon [5] [M⁻¹ s⁻¹]	t½ [5] [min]	further results
H4H30045P (antibody, human IgG4 S228P, kappa, V domains shown, HCVR 179, LCVR 187) VH: QVQLVQSGAEVKKPGASVKVSCKTSGYRFVNYGFSWVRQAPGQGLEWMGWISPYNGNTNYIQNLQDRITMTTDTSTNTAYMELTNLRSDDTAVYYCATLTGVHFDYWGQGTLVTVSS VL: AIQMTQSPSSLSASVGDRVTITCRASQGIRNDLGWYQQKPGKAPNLLIFETSRLQSGVPSRFSGSGSGTDFTLTINSLQPEDFATYYCLQDYNYPWTFGQGTKVEIKR	266	0.581	0.000161	277000	71.8	124	16.2	0.00624	385000	1.9	77.1	19.6	0.00746	381000	1.5	71.9	20.6	0.00882	429000	1.3	binding result [4]: no binding (tested: 90 nM); 90 nM mFGFR3b.mmH Bind (RU) [6]: 2.4 RU
H4H30066P (antibody, human IgG4 S228P, kappa, V domains shown, HCVR 22, LCVR 30) VH: QVQLVQSGAEVKKPGASVKVSCKVSGYTLTELSMHWVRQAPGKGLEWMGGFDPEDGEIIYAQKFQGRVTMTEDTSTDTAYMDLSSLTSEDTAVYYCATEKQQLVRKYYFYYGLAVWGQGTTVTVSS VL: not shown	282	≤ 0.0158	≤ 1e-05	632000	≥ 1160	224	1.28	0.000635	496000	18.2						203	1.99	0.000779	391000	14.8	% Blocking at 200 nM mAb [7]: 90%; IC50 [7]: 3.2 nM; binding result [3]: no binding (tested: 90 nM); 90 nM mFGFR3b.mmH Bind (RU) [4]: 64.6 RU; Kd [4]: 16.9 nM; koff [4]: 0.00487 s⁻¹; kon [4]: 288000 M⁻¹ s⁻¹; t½ [4]: 2.4 min; 90 nM hFGFR3c.mmH Bind (RU) [8]: 0.5 RU
H4H30102P2 (antibody, human IgG4 S228P, kappa, V domains shown) VH: EVQLVESGGDLVQPGGSLRLSCAASGFTFSSYEMNWVRQAPGKGLEWVSYISNSGSTIYYADSVKGRFTISRDNAETSLYLQMNSLRAEDTAVYYCAREGWGAYCAGDCYSGFDIWGQGTMVTVSS VL: not shown																126	1.75	0.00023	131000	50.2	IC50 [M], BaF3 proliferation (CellTiter-Glo) with 1 nM FGF1 + 5 ug/ml heparin [9]: 1.86e-08 M; Max Blocking (%), BaF3 proliferation (CellTiter-Glo) with 1 nM FGF1 + 5 ug/ml heparin [9]: 41.1%; Max Blocking (%), BaF3 proliferation (CellTiter-Glo) with 1 nM FGF1 + 5 ug/ml heparin [10]: 34.5%
H4H30061P (antibody, human IgG4 S228P, kappa, V domains shown) VH: EVQLVESGGGLAQPGGSLKLSCEASGFTFSDSAMHWVRQASGKGLEWVGRIRSKANSYATGYAASVKGRFTISRDDSKNMAFLEMNSLKTEDTAVYYCLRQTYGDPWGQGTLVTVSS VL: DVVMTQSPLSLSVTLGQPASISCRSSLSLVYSDGNNYLNWFQQRPGQSPRRLLYKVFNRDSGVPDRFSGSGSGTDFTLKISRVEAEDVGVYYCMQGTHWPWTFGQGTKVEIKR	260	≤ 0.0433	≤ 1e-05	231000	≥ 1160	249	0.506	8.74e-05	173000	132	204	0.526	7.92e-05	151000	146	197	0.65	9.83e-05	151000	118	90 nM mFGFR3b.mmH Bind (RU) [6]: -8.5 RU
